Experimental data published in patent US20240279344A1 (CDR LIFE, published 2024).

Columns and labels:
[1] = target: T1, HLA-A2/MAGE-A4 complex, recombinant (HLA-A*02:01 extracellular domain, human b2m, MAGE-A4 peptide 230-239 …) (human, UniProt P04439 25-299 at identity 0.94); P61769 21-119); assay: direct ELISA, plate coated with HLA-A2/MAGE-A4 complex, serial dilution of the antibody
T1 construct: also called MAGE-A4 pMHC; MAGE-A4/HLA-A2 complex
Procedure: All available hits were evaluated for their ability to bind MAGE-A4/HLA-A2 complex and a control peptide/HLA-A2 complex in a direct binding ELISA assay. […] Briefly, 96 well ELISA plates were coated with purified human MAGE-A4/HLA-A2 complex or control HLA-A2 complex. Serial dilutions of antibody molecules were added to the plate and detected by an anti-kappa light chain-HRP (Invitrogen) or a purified rabbit anti-VHH (QVQ) followed by goat anti-rabbit IgG(H+L) HRP (Southern Biotech). […] 5B.

[2] = target: T2, control peptide 1 (…) displayed by HLA-A2 on T2 cells (human); assay: flow cytometry on peptide-pulsed T2 cells, relative MFI (binding over peptide loading)
T2 construct: whole, on cells; also called Ctrl.1
Procedure: (§1) TAP-deficient T2 cells were pulsed with HLA-A2-restricted peptides (MAGE-A4 or control peptides) and incubated with MAGE-A4 binders followed by fluorophore-labeled specific detection antibodies and analysis by flow cytometry.
(§2) Briefly, T-B hybrid T2 cells were incubated with serum-free RPMI1640 medium containing MAGE-A4 or control peptides. […] Peptide loading efficiency was verified by using the ratio between median fluorescent intensity (MFI) of HLA-A2-binding antibody BB7.2 on peptide loaded T2 cells and MFI of unloaded T2 cells (>1). T2 cells were incubated with each of the specific antibodies followed by fluorophore-labeled detection antibodies (anti-kappa light chain or anti-Flag). The cells were fixed and fluorescence was measured by flow cytometry.

[3] = target: T3, control peptide 2 (…) displayed by HLA-A2 on T2 cells (human); assay: as above
T3 construct: whole, on cells; also called Ctrl.2
Procedure: as §1, §2

[4] = target: T4, control peptide 3 (…) displayed by HLA-A2 on T2 cells (human); assay: as above
T4 construct: whole, on cells; also called Ctrl.3
Procedure: as §1, §2

[5] = target: T1, HLA-A2/MAGE-A4 complex, recombinant …; assay: SPR
[6] = target: T1, HLA-A2/MAGE-A4 complex, recombinant …; assay: phage display biopanning and screening

binding result [1]	binding result [2]	binding result [3]	Binder	other results
binds			M0705 (Fab, V domains shown) VH: QQQLVESGGRLVTPGTPLTLTCTASGIDLNSNAMSWVRQGPGKGLEWIGDIWSGGYTDYASWAKGRFTISKTSTTVDLKMTSLTAADTATYFCARDRLAGDGVVDYDLWGQGTLVTVSS VL: ELDMTQTPASVEVAVGGTVTIKCQASQNIYSNLAWYQQKPGQRPKLLIYGASTLASGVPSRFKGSGSGTEYTLTINGVQAADAATYYCQQGFSSSNVDNVFGGGTEVVVKR	
	no binding	no binding	M0743 (VHH, Llama-derived VHH; detected with anti-VHH (ELISA) or anti-Flag (flow)) VHH: EVQLVESGGGLVQPGGSLRLSCVASGFTFSWYTMNWVRQAPGKGFEWVASIGSGGTPTTYRESVKGRFTISRDNAKSTLYLQMNSLKPEDTAVYHCENGQARGQGTQVTVSS	binding result [4]: no binding; EC50 (read off the curve) [1]: ~0.003 µg/mL
			M1335 (antibody, V domains shown, Variant with the HCDR2 motif SWA replaced by DSV) VH: EVQLLESGGGSVQPGGSLRLSCTVSGFSLSNYAMSWVRQAPGKGLEWIGIVSSGGTTYYADSVKGRFTISKDTSKNTVYLQMNSLRAEDTASYYCAKDLYYGPSTYFVANLWGQGTSVTVSS VL: SYELTQPPSVSVSPGQTASITCTADTLSRSYASWYQQKPGQSPVLVIYRDTSRPSGIPERFSGSNSGNTATLTISGTQAMDEADYYCATRPSSGSNFQLFGGGTKLTVL	binding result [5]: binds
			M1342 (antibody, V domains shown, Variant with the HCDR2 motif SWA replaced by DSV) VH: EVQLLESGGGSVQPGGSLRLSCTVSGFSLSNYAMSWVRQAPGKGLEWIGIVSSGGTTYYADSVKGRFTISKDTSKNTVYLQMNSLRAEDTASYYCAKDLYYGPNTDYSAANLWGQGTSVTVSS VL: SYELTQPPSVSVSPGQTASITCTADTLSRSYASWYQQKPGQSPVLVIYRDTSRPSGIPERFSGSNSGNTATLTISGTQAMDEADYYCATRPSSGSNFQAFGGGTKLTVL	binding result [5]: binds
			M0751 (VHH, Llama-derived VHH) VHH: EVQLVESGGGLVQPGGSLRLSCAASGFSFRLYTMSWVRQAPGKGLEWVSSISSGGGVVTTYADSAKGRFTISRDNDKNTLTLQMNSLKPEDTAVYYCAQGERRGQGTQVTVSS	binding result [6]: binds
binds			M0766 (Fab, V domains shown) VH: PEQLEESGGGLVTPGGVLTLTCTASGFSFSSYGVNWVRQAPGKGLEWIGFIFGDGTTYYANWAKGRFTISKTSTTVDLKMTSPTTEDTATYFCARDGYGGYDYIINLWGQGTLVTVSS VL: AQVLTQTPASVSAAVGGTVSISCQSSQSVVNNNWLAWYQQKPGQPPKLLIYKASTLESGVPSRFKGSGSGTQFTLTISGVQADDAATYYCLGEFSCSSADCHAFGGGTELEILR	
			M0752 (VHH, Llama-derived VHH) VHH: EVQLVESGGGLVQPGGSLRLSCAASGFTFSNYGMSWVRQAPGKGLEWVSSIGSGGRITTYLDSVKGRFTISRDNAKNTLYLQMNSLKSEDTAVYYCESGGYRGQGTQVTVSS	binding result [6]: binds
binds			M0762 (Fab, V domains shown) VH: QSVKESGGRLVTPGTPLTLTCTASGFTISSSAISWVRQAPGKGLEYIGIIRSGGTTDYASWAKGRFAISKTSTTVDLKITSPTTEDTATYFCARDPPYITSTYFDLWGQGTLVTVSS VL: SELVLTQPQSVSGSLGQTVSISCKRARDSVESYDVHWYQQHPGKTPTIVIYKDDQRPSGVPDRFSGSIDSTSNSASLTITGLLAEDEADYFCQSFDGDAVVFGGGTQLTVTG	
	binds	binds	M0709 (Fab, V domains shown) VH: QSVKESGGRLVTPGTPLTLTCTVSGFSLSNYAMSWVRQAPGKGLEYIGIVSSGGTTYYASWAKGRFTISKTSTTVDLKITSPTTEDTATYFCAKDLYYGPTTYSAFNLWGQGTLVTVSS VL: SELVLTQPQSVSGSLGQTVSISCKRARDNIEDYYVHWYQQHPGKTPTIVIHKDDQRPSGVPDRFSGSIDSTSNSASLTITGLLAEDEADYFCQSFDNDASPVFGGGTQLTVTG	
	no binding	no binding	M0763 (Fab, V domains shown, also called M763; parental M0763 antibody) VH: QSVKESGGRLVTPGTPLTLTCTVSGFSLSNYAMSWVRQAPGKGLEYIGIVSSGGTTYYASWAKGRFTISKTSTTVDLKITSPTTEDTATYFCAKDLYYGPTTYSAFNLWGQGTLVTVSS VL: SELVLTQPASVQVNLGQTVSLTCTADTLSRSYASWYQLKPGQAPVLLIYRDTSRPSGVPDRFSGSSSGNTATLTISGAQAGDEGDYVCATSDGSGSNFQLFGGGTQLTVTG	binding result [4]: no binding; EC50 (read off the curve) [1]: ~1 µg/mL
binds			M0710 (Fab, V domains shown) VH: QSVKESGGRLVTPGTPLTLTCTVSGFSLSNYAMSWVRQAPGKGLEYIGIVSSGGTTYYASWAKGRFTISKTSTTVDLKITSPTTEDTATYFCAKDLYYGPTTYSAFNLWGQGTLVTVSS VL: SELVLTQPQSVSGSLGQTVSISCKRARDNIEDYYVHWYQQYPGKTPTIVIYKDDQRPSGVPDRFSGSIDSTSNSASLTITGLLAEDEADYFCQSFDNNANVVFGGGTQLTVTG	
binds			M0708 (Fab, V domains shown) VH: QSVEESGGRLVTPGTPLTLTCTVSGFSLSNYAMSWVRQAPGKGLEYIGIVSSGGTTYYASWAKGRFTISKTSTTVDLKITSPTTEDTATYFCAKDLYYGPTTYSAFNLWGQGTLVTVSS VL: SELVLTQPQSVSGSLGQTVSISCKRARNNIEDYYVHWYQQHPGRSPTIVIHKDDQRPSGVPDRFSGSIDSTSNSASLTITGLLAEDEADYFCQSFDNNANPVFGGGTQLTVTG	
	no binding	binds	M0742 (VHH, Llama-derived VHH; detected with anti-VHH (ELISA) or anti-Flag (flow)) VHH: EVQLVESGGGLVQPRGSLRLSCAASGFTFSNSGMSWVRQAPGKGLEWVSSISSGGSSTTYLDSVKGRFTISRDNAKNTLYLQMNSLKPEDTAVYYCSWADLRGRGTQVTVSS	EC50 (read off the curve) [1]: ~0.02 µg/mL
			M0750 (VHH, Llama-derived VHH) VHH: MEVQLVESGGGLVQPGGSLRLSCAASGFTFSRYTMSWVRQAPGEGLEWVSSIGSGGGPTTYANSVKGRFTVSRDNAKNTLWLQMNNLKPEDTALYYCQGGGNRGQGAQVTVSS	binding result [6]: binds
binds	no binding	no binding	M0747 (VHH, Llama-derived VHH; detected with anti-VHH (ELISA) or anti-Flag (flow)) VHH: EVQLVESGGGLAQAGGSLRVSCVASGRPFTKYAWGWFRQAPGKAREFVATITWDGGKTDYADSVKGRFTISKDSAENSIYLQMNSLKPEDTAVYYCAADRNYCVGHRCYVRPDDYDYWGQGTQVTVSS	binding result [4]: no binding
			M0702 (Fab, V domains shown) VH: QEQLEESGGGLVTPGTPLTLTCTASGFSLSSYAMIWVRQAPGKGLEWIGTINDGGTAFYANWVKGRFTISRTSTTVDLKMTSPTTEDTATYFCARAYGSNGDVYWGYVNLWGQGTLVTVSS VL: ELVMTQTPASVSEPVGGTVTIKCQASQSIGSNLAWYQQKPGQPPKLLIYAAANLASGVSSRFKGSRSGTEYTLTISGVQAADAATYYCQQGYSSSNVANVFGGGTELEILR	EC50 (read off the curve) [1]: ~0.6 nM
binds	no binding	binds	M0739 (VHH, Llama-derived VHH; detected with anti-VHH (ELISA) or anti-Flag (flow)) VHH: EVQLVESGGGSVQPGGSLRLSCAASGFTFSRSTMSWVRQAPGKGLEWVSSISGSGGVTTYTTSVKGRFTISRDNAKNLMYLQMNSLNPEDTAVYYCANGDNRGPGTQVTVSS	
binds			M0707 (Fab, V domains shown) VH: QQQLEESGGGLVTPGTPLTLTCTVSGIDLSSYAMGWVRQAPGKGLEWIGTINDGGSAFYASWVKGRFTISRTSTTVDLKITSPTAEDTATYFCAKTYGTNGDVYWGYFNLWGQGTLVTVSS VL: ELVMTQTPASVSEPVGGTVTIKCQASQSIGSNLAWYQQKPGQPPKLLIYYESILASGVPSRFSGSGSGTEYTLTISGAQADDAATYYCQQGYSSSNILNAFGGGTEVVVKR	
			M0749 (VHH, Llama-derived VHH) VHH: EVQLVESGGGSVQPGGSLRLSCAASGFTFSRSTMSWVRQAPGKEIEWVSSVSGSGGVTTYADSVKGRFTISRDNAKNTLYLQMSSLKPEDTAVYYCGNSNARGQGTQVTVSS	binding result [6]: binds
